Where no end group is shown, it is not given here. [ ]: non-standard residue; d: D form. The star is where a group is joined. C18 fatty acyl = 18 carbon fatty acyl group covalently attached to Lys; PEG 40 kDa = PEG (40 kDa) covalently attached to Cys; Palmitoyl = CCCCCCCCCCCCCCCC(=O)*; Myristoyl = CCCCCCCCCCCCCC(=O)*; Dab = NCC[C@H](N)C(=O)O; Abu = CC[C@H](N)C(=O)O; Aib = CC(C)(N)C(=O)O

T1: GIP receptor (UniProt P48546 22-466)
T1 sequence (looked up): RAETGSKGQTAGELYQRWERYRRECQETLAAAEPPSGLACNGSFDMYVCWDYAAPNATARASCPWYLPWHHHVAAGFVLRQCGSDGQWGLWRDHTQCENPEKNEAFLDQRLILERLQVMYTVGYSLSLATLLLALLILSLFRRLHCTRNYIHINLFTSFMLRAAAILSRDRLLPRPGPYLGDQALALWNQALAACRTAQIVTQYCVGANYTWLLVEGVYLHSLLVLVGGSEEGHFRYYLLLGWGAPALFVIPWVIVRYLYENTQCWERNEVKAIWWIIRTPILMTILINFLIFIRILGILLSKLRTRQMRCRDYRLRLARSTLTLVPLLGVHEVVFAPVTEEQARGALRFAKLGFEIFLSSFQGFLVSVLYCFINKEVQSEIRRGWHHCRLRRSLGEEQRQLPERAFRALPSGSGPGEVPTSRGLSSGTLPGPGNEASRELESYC

B1: mt-325 (peptide)
peptide: Y[Aib]QGTF[Abu]SDYSIYLDKQAA[Aib]EFVNWLLAGGPSSGAPPPSC-NH2
modifications: N-terminus assumed
SMILES: CC[C@H](NC(=O)[C@H](Cc1ccccc1)NC(=O)[C@@H](NC(=O)CNC(=O)[C@H](CCC(N)=O)NC(=O)C(C)(C)NC(=O)[C@@H](N)Cc1ccc(O)cc1)[C@@H](C)O)C(=O)N[C@@H](CO)C(=O)N[C@@H](CC(=O)O)C(=O)N[C@@H](Cc1ccc(O)cc1)C(=O)N[C@@H](CO)C(=O)N[C@H](C(=O)N[C@@H](Cc1ccc(O)cc1)C(=O)N[C@@H](CC(C)C)C(=O)N[C@@H](CC(=O)O)C(=O)N[C@@H](CCCCN)C(=O)N[C@@H](CCC(N)=O)C(=O)N[C@@H](C)C(=O)N[C@@H](C)C(=O)NC(C)(C)C(=O)N[C@@H](CCC(=O)O)C(=O)N[C@@H](Cc1ccccc1)C(=O)N[C@H](C(=O)N[C@@H](CC(N)=O)C(=O)N[C@@H](Cc1c[nH]c2ccccc12)C(=O)N[C@@H](CC(C)C)C(=O)N[C@@H](CC(C)C)C(=O)N[C@@H](C)C(=O)NCC(=O)NCC(=O)N1CCC[C@H]1C(=O)N[C@@H](CO)C(=O)N[C@@H](CO)C(=O)NCC(=O)N[C@@H](C)C(=O)N1CCC[C@H]1C(=O)N1CCC[C@H]1C(=O)N1CCC[C@H]1C(=O)N[C@@H](CO)C(=O)N[C@@H](CS)C(N)=O)C(C)C)[C@@H](C)CC
B2: mt-308 (peptide)
peptide: Y[Aib]EGTFTSDYSIYLDKQAA[Aib]EFVCWLLAGGPSSGAPPPSK-NH2
modifications: N-terminus assumed
SMILES: CC[C@H](C)[C@H](NC(=O)[C@H](CO)NC(=O)[C@H](Cc1ccc(O)cc1)NC(=O)[C@H](CC(=O)O)NC(=O)[C@H](CO)NC(=O)[C@@H](NC(=O)[C@H](Cc1ccccc1)NC(=O)[C@@H](NC(=O)CNC(=O)[C@H](CCC(=O)O)NC(=O)C(C)(C)NC(=O)[C@@H](N)Cc1ccc(O)cc1)[C@@H](C)O)[C@@H](C)O)C(=O)N[C@@H](Cc1ccc(O)cc1)C(=O)N[C@@H](CC(C)C)C(=O)N[C@@H](CC(=O)O)C(=O)N[C@@H](CCCCN)C(=O)N[C@@H](CCC(N)=O)C(=O)N[C@@H](C)C(=O)N[C@@H](C)C(=O)NC(C)(C)C(=O)N[C@@H](CCC(=O)O)C(=O)N[C@@H](Cc1ccccc1)C(=O)N[C@H](C(=O)N[C@@H](CS)C(=O)N[C@@H](Cc1c[nH]c2ccccc12)C(=O)N[C@@H](CC(C)C)C(=O)N[C@@H](CC(C)C)C(=O)N[C@@H](C)C(=O)NCC(=O)NCC(=O)N1CCC[C@H]1C(=O)N[C@@H](CO)C(=O)N[C@@H](CO)C(=O)NCC(=O)N[C@@H](C)C(=O)N1CCC[C@H]1C(=O)N1CCC[C@H]1C(=O)N1CCC[C@H]1C(=O)N[C@@H](CO)C(=O)N[C@@H](CCCCN)C(N)=O)C(C)C
B3: mt-324 (peptide)
peptide: Y[Aib]QGTFSSDYSIYLDKQAA[Aib]EFVNWLLAGGPSSGAPPPSC-NH2
modifications: N-terminus assumed
SMILES: CC[C@H](C)[C@H](NC(=O)[C@H](CO)NC(=O)[C@H](Cc1ccc(O)cc1)NC(=O)[C@H](CC(=O)O)NC(=O)[C@H](CO)NC(=O)[C@H](CO)NC(=O)[C@H](Cc1ccccc1)NC(=O)[C@@H](NC(=O)CNC(=O)[C@H](CCC(N)=O)NC(=O)C(C)(C)NC(=O)[C@@H](N)Cc1ccc(O)cc1)[C@@H](C)O)C(=O)N[C@@H](Cc1ccc(O)cc1)C(=O)N[C@@H](CC(C)C)C(=O)N[C@@H](CC(=O)O)C(=O)N[C@@H](CCCCN)C(=O)N[C@@H](CCC(N)=O)C(=O)N[C@@H](C)C(=O)N[C@@H](C)C(=O)NC(C)(C)C(=O)N[C@@H](CCC(=O)O)C(=O)N[C@@H](Cc1ccccc1)C(=O)N[C@H](C(=O)N[C@@H](CC(N)=O)C(=O)N[C@@H](Cc1c[nH]c2ccccc12)C(=O)N[C@@H](CC(C)C)C(=O)N[C@@H](CC(C)C)C(=O)N[C@@H](C)C(=O)NCC(=O)NCC(=O)N1CCC[C@H]1C(=O)N[C@@H](CO)C(=O)N[C@@H](CO)C(=O)NCC(=O)N[C@@H](C)C(=O)N1CCC[C@H]1C(=O)N1CCC[C@H]1C(=O)N1CCC[C@H]1C(=O)N[C@@H](CO)C(=O)N[C@@H](CS)C(N)=O)C(C)C
B4: mt-276 (peptide)
peptide: Y[Aib]QGTFTSDYSIYLD[Dab]QAA[Aib]EFVNWLLAGGPSSGAPPPSC-NH2
modifications: N-terminus assumed
SMILES: CC[C@H](C)[C@H](NC(=O)[C@H](CO)NC(=O)[C@H](Cc1ccc(O)cc1)NC(=O)[C@H](CC(=O)O)NC(=O)[C@H](CO)NC(=O)[C@@H](NC(=O)[C@H](Cc1ccccc1)NC(=O)[C@@H](NC(=O)CNC(=O)[C@H](CCC(N)=O)NC(=O)C(C)(C)NC(=O)[C@@H](N)Cc1ccc(O)cc1)[C@@H](C)O)[C@@H](C)O)C(=O)N[C@@H](Cc1ccc(O)cc1)C(=O)N[C@@H](CC(C)C)C(=O)N[C@@H](CC(=O)O)C(=O)N[C@@H](CCN)C(=O)N[C@@H](CCC(N)=O)C(=O)N[C@@H](C)C(=O)N[C@@H](C)C(=O)NC(C)(C)C(=O)N[C@@H](CCC(=O)O)C(=O)N[C@@H](Cc1ccccc1)C(=O)N[C@H](C(=O)N[C@@H](CC(N)=O)C(=O)N[C@@H](Cc1c[nH]c2ccccc12)C(=O)N[C@@H](CC(C)C)C(=O)N[C@@H](CC(C)C)C(=O)N[C@@H](C)C(=O)NCC(=O)NCC(=O)N1CCC[C@H]1C(=O)N[C@@H](CO)C(=O)N[C@@H](CO)C(=O)NCC(=O)N[C@@H](C)C(=O)N1CCC[C@H]1C(=O)N1CCC[C@H]1C(=O)N1CCC[C@H]1C(=O)N[C@@H](CO)C(=O)N[C@@H](CS)C(N)=O)C(C)C

Sequence of glucagon receptor (P47871 26-477 limits assumed): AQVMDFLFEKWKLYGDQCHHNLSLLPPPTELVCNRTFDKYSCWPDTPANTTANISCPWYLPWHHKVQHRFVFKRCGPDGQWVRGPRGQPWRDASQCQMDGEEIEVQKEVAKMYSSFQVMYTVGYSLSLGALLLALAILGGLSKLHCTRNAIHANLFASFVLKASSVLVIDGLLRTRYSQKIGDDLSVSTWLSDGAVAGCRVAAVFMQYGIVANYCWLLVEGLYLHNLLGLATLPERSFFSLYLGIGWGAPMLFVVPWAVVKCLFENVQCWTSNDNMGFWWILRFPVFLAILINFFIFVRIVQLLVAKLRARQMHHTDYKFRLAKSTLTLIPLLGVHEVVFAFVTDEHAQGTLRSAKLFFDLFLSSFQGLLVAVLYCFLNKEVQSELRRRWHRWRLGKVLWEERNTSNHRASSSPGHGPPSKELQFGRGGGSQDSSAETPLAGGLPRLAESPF

The first test addresses T1, GIP receptor. Put plainly: cell-based or functional assay.
For the molecule B1, the EC50 (commonly the concentration needed to bring the measured effect to its halfway point) came out at 10.5 pM and the relative activity is 111%.
For the molecule B2, it took 5.7 pM to reach a half-maximal effect (EC50).
For Y[Aib]EGTFTSDYSIYLDKQAA[Aib]EFVNWLLAGGPSSGAPPPSK(Myristoyl)-NH2 [mt-260], the “EC50” value was 1.8 pM.
Take B3: it took 38.7 pM to reach a half-maximal effect (EC50) and the relative activity was found to be 30.2%.
In the case of Y[Aib]EGTFTSDYSIYLDKQAA[Aib]EFVCWLLAGGPSSGAPPPSK(C18 fatty acyl)-NH2 [mt-307], the “EC50” value turned out to be 12.7 pM.
Regarding Y[Aib]EGTFTSDYSIYLDKQAA[Aib]EFVC(PEG 40 kDa)WLLAGGPSSGAPPPSK(Myristoyl)-NH2 [mt-309], a half-maximal effect (EC50) was put at 9.1 pM and the relative activity stood at 226%.
The matching figures for Y[Aib]EGTFTSDYSIYLDKQAA[Aib]EFVC(PEG 40 kDa)WLLAGGPSSGAPPPSK(Palmitoyl)-NH2 [mt-298]: 5.1 pM and 404%.
In the same order, the values of Y[Aib]EGTFTSDYSIYLDKQAA[Aib]EFVC(PEG 40 kDa)WLLAGGPSSGAPPPSK(C18 fatty acyl)-NH2 [mt-310] are 7.5 pM and 275%.
As for B4, the “EC50” value turned out to be 8 pM and the relative activity is 174%.
The matching figures for Y[Aib]EGTFTSDYSIYLDKQAA[Aib]EFVC(PEG 40 kDa)WLLAGGPSSGAPPPSK-NH2 (not fully specified) [mt-311]: 54.5 pM and 37.8%.
With YXQGTFTSDYSIYLDXQAAXEFVNWLLAGGPSSGAPPPSC (Orn at position 16; AIB at position 20) [mt-275], a half-maximal response (EC50) required 12.4 pM and the relative activity is 112%.
In the same order, the values of Y[Aib]EGTFTSDYSIYLDKQAA[Aib]EFVNWLLAGGPSSGAPPPSC(PEG 40 kDa)-NH2 [mt-274] are 35 pM and 39.7%.

For a further test, the target named is GLP-1 receptor (UniProt P43220 24-463, limits assumed). The experiment in a line: cell-based or functional assay.
Turning to B1, the “EC50” value was found to be 2680 pM and the relative activity is 0.83%.
As to B2, the “EC50” value turned out to be 23.7 pM.
Y[Aib]EGTFTSDYSIYLDKQAA[Aib]EFVNWLLAGGPSSGAPPPSK(Myristoyl)-NH2 [mt-260]: the response was half-maximal at 6.8 pM (EC50).
In the case of B3, the “EC50” value came out at 230 pM and the relative activity came to 9.68%.
As to Y[Aib]EGTFTSDYSIYLDKQAA[Aib]EFVCWLLAGGPSSGAPPPSK(C18 fatty acyl)-NH2 [mt-307], a half-maximal response (EC50) required 14.3 pM.
Take Y[Aib]EGTFTSDYSIYLDKQAA[Aib]EFVC(PEG 40 kDa)WLLAGGPSSGAPPPSK(Myristoyl)-NH2 [mt-309]: a half-maximal response (EC50) required 10.4 pM and the relative activity came out at 151%.
The matching figures for Y[Aib]EGTFTSDYSIYLDKQAA[Aib]EFVC(PEG 40 kDa)WLLAGGPSSGAPPPSK(Palmitoyl)-NH2 [mt-298]: 8.7 pM and 180%.
For Y[Aib]EGTFTSDYSIYLDKQAA[Aib]EFVC(PEG 40 kDa)WLLAGGPSSGAPPPSK(C18 fatty acyl)-NH2 [mt-310], the “EC50” value came to 6.2 pM and the relative activity amounted to 253%.
Consider B4, for which the “EC50” value was 6.6 pM and the relative activity came to 108%.
Consider Y[Aib]EGTFTSDYSIYLDKQAA[Aib]EFVC(PEG 40 kDa)WLLAGGPSSGAPPPSK-NH2 (not fully specified) [mt-311], for which the “EC50” value turned out to be 217 pM and the relative activity turned out to be 7.22%.
Regarding YXQGTFTSDYSIYLDXQAAXEFVNWLLAGGPSSGAPPPSC (Orn at position 16; AIB at position 20) [mt-275], a half-maximal effect (EC50) was put at 6.8 pM and the relative activity turned out to be 104%.
In the same order, the values of Y[Aib]EGTFTSDYSIYLDKQAA[Aib]EFVNWLLAGGPSSGAPPPSC(PEG 40 kDa)-NH2 [mt-274] are 91.6 pM and 7.75%.

Another test addresses glucagon receptor (UniProt P47871 26-477, limits assumed). Put plainly: cell-based or functional assay.
Turning to B1, the midpoint of the response, the EC50, lay at 91.5 pM and the relative activity amounted to 86.5%.
For the molecule Y[Aib]EGTFTSDYSIYLDKQAA[Aib]EFVNWLLAGGPSSGAPPPSK(Myristoyl)-NH2 [mt-260], the “EC50” value is 321 pM.
In the case of B3, the midpoint of the response, the EC50, lay at 1230 pM and the relative activity was 6.41%.
In the same order, the values of Y[Aib]EGTFTSDYSIYLDKQAA[Aib]EFVC(PEG 40 kDa)WLLAGGPSSGAPPPSK(Myristoyl)-NH2 [mt-309] are 3610 pM and 1.77%.
Turning to Y[Aib]EGTFTSDYSIYLDKQAA[Aib]EFVC(PEG 40 kDa)WLLAGGPSSGAPPPSK(Palmitoyl)-NH2 [mt-298], the “EC50” value was determined as 1760 pM and the relative activity was found to be 3.63%.
The matching figures for Y[Aib]EGTFTSDYSIYLDKQAA[Aib]EFVC(PEG 40 kDa)WLLAGGPSSGAPPPSK(C18 fatty acyl)-NH2 [mt-310]: 775 pM and 8.24%.
With B4, the “EC50” value is 53.7 pM and the relative activity came to 77.7%.
Turning to Y[Aib]EGTFTSDYSIYLDKQAA[Aib]EFVC(PEG 40 kDa)WLLAGGPSSGAPPPSK-NH2 (not fully specified) [mt-311], the “EC50” value was 197000 pM and the relative activity is 0.03%.
The matching figures for YXQGTFTSDYSIYLDXQAAXEFVNWLLAGGPSSGAPPPSC (Orn at position 16; AIB at position 20) [mt-275]: 67.1 pM and 62.1%.
Take Y[Aib]EGTFTSDYSIYLDKQAA[Aib]EFVNWLLAGGPSSGAPPPSC(PEG 40 kDa)-NH2 [mt-274]: the midpoint of the response, the EC50, lay at 69100 pM and the relative activity came to 0.06%.
